Laboratory results as given in patent publication US20160324962A1 (AstraZeneca / MedImmune, published 2016).

Columns and labels:
[1] = biological target: T1, human insulin-like growth factor 1 (IGF-1) (human, UniProt P05019 49-118); assay: cell-based or functional assay
[2] = biological target: T2, human insulin-like growth factor 2 (IGF-2) (human, UniProt P01344 25-91); assay: cell-based or functional assay
[3] = biological target: T1, human insulin-like growth factor 1 …; assay: method not stated; affinity quoted in Example 3
[4] = biological target: T2, human insulin-like growth factor 2 …; assay: method not stated; affinity quoted in Example 3

T1 sequence (P05019 49-118 limits assumed): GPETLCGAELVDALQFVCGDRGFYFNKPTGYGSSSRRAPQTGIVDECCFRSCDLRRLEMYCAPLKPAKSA
T2 sequence (P01344 25-91 limits assumed): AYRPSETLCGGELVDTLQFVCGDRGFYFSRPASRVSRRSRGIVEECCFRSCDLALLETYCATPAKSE

IC50 (µM), inhibition of IGF-1-stimulated proliferation of MG-63 cells (CellTiter-Glo) [1]: 223 µM | IC50 (µM), inhibition of IGF-1-stimulated proliferation of RD-ES cells (CellTiter-Glo) [1]: 40 µM | IC50 (µM), inhibition of IGF-1-stimulated proliferation of SAOS2 cells (CellTiter-Glo) [1]: 177 µM | IC50 (µM), inhibition of IGF-1-stimulated proliferation of SK-ES-1 cells (CellTiter-Glo) [1]: 20 µM | IC50 (µM), inhibition of IGF-2-stimulated proliferation of MG-63 cells (CellTiter-Glo) [2]: 5.8 µM | IC50 (µM), inhibition of IGF-2-stimulated proliferation of RD-ES cells (CellTiter-Glo) [2]: 2 µM | IC50 (µM), inhibition of IGF-2-stimulated proliferation of SAOS2 cells (CellTiter-Glo) [2]: 5.3 µM | IC50 (µM), inhibition of IGF-2-stimulated proliferation of SK-ES-1 cells (CellTiter-Glo) [2]: 20 µM | Kd [3]: 0.000294 µM | Kd [4]: 2 pM
B1: MEDI-573 (antibody, human IgG2, lambda, V domains shown)
VH: QVQLVQSGAEVKKPGASVKVSCKASGYTFTSYDINWVRQATGQGLEWMGWMNPNSGNTGYAQKFQGRVTMTRNTSISTAYMELSSLRSEDTAVYYCARDPYYYYYGMDVWGQGTTVTVSS
VL: QSVLTQPPSVSAAPGQKVTISCSGSSSNIENNHVSWYQQLPGTAPKLLIYDNNKRPSGIPDRFSGSKSGTSATLGITGLQTGDEADYYCETWDTSLSAGRVFGGGTKLTVLG
notes: also called mAb 7.159.2; anti-IGF antibody
